Target: TGF-beta-1 (TGF-β1 homodimer) (Homo sapiens?) (UniProt P01137)
Test: EMSA
Details: PS at dA and dC (5' of A and C; from dATP(αS)/dCTP(αS)); apparent; naive library control; room temp 30 min

TGF-beta-1 (TGF-β1 homodimer) (Homo sapiens?), sequence (P01137 279-390): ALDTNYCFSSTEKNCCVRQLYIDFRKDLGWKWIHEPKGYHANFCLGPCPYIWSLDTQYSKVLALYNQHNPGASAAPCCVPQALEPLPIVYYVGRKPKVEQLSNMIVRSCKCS

Sequence: CAGTCCGGATGCTCTAGAGTGACNNNNNNNNNNNNNNNNNNNNNNNNNNNNNNCGAATCTCGTGAAGCCGAGCG [initial 74-mer N30 thiophosphate ssDNA library]
- Kd: 11 µM

Reference: patent publication US20050239134
